Measured values: patent US20090312236A1

Target: human IGF-1 receptor (human) (UniProt P08069)
Assay: competitive radioligand SPA, [125I]IGF-1, hIGF-1R membranes

Ki: > 75 nM
Substance: insulin lispro (ligand; other documents disagree on this pair)
